# Patent US20110014669A1, “Production of 1,4 Butanediol in a Microorganism” (Microbia, Inc., priority 2009, published 2011)
# B1: BcaTPf: Branched-chain-amino-acid transaminase from Pseudomonas fluorescens, step A4 enzyme candidate, SEQ ID NO. 58 (protein, listed as Pseudomonas fluorescens)
# chain: MGNESINWDKLGFDYIKTDKRFLQVWKNGEWQEGTLTDDNVLHISEGSTALHYGQQCFEGLKAYRCKDGSINLFRPDQNAARMQRSCARLLMPHVPTDVFIDACKQVVKANEHFIPPYGSGGALYLRPFVIGTGDNIGVRTAPEFIFSVFCIPVGAYFKGGLVPHNFQISTFDRAAPQGTGAAKVGGNYAASLMPGSEAKKAGFADAIYLDPMTHSKIEEVGSANFFGITHDNQFITPKSPSVLPGITRLSLIELAKTRLGLDVVEGEVFIDKLDQFKEAGACGTAAVISPIGGIQYNGKLHVFHSETEVGPITQKLYKELTGVQTGDVEAPQGWIVKV
# B2: ADH6Sc: Alcohol dehydrogenase from Saccharomyces cerevisiae, step A6 enzyme candidate, SEQ ID NO. 47 (protein, listed as Saccharomyces cerevisiae)
# chain: MSYPEKFEGIAIQSHEDWKNPKKTKYDPKPFYDHDIDIKIEACGVCGSDIHCAAGHWGNMKMPLVVGHEIVGKVVKLGPKSNSGLKVGQRVGVGAQVFSCLECDRCKNDNEPYCTKFVTTYSQPYEDGYVSQGGYANYVRVHEHFVVPIPENIPSHLAAPLLCGGLTVYSPLVRNGCGPGKKVGIVGLGGIGSMGTLISKAMGAETYVISRSSRKREDAMKMGADHYIATLEEGDWGEKYFDTFDLIVVCASSLTDIDFNIMPKAMKVGGRIVSISIPEQHEMLSLKPYGLKAVSISYSALGSIKELNQLLKLVSEKDIKIWVETLPVGEAGVHEAFERMEKGDVRYRFTLVGYDKEFSD
# B3: KdcALl: Branched-chain alpha-keto acid decarboxylase from Lactococcus lactis, step A5 enzyme candidate, SEQ ID NO. 36; His-tagged when purified (protein, listed as Lactococcus lactis)
# chain: MYTVGDYLLDRLHELGIEEIFGVPGDYNLQFLDQIISREDMKWIGNANELNASYMADGYARTKKAAAFLTTFGVGELSAINGLAGSYAENLPVVEIVGSPTSKVQNDGKFVHHTLADGDFKHFMKMHEPVTAARTLLTAENATYEIDRVLSQLLKERKPVYINLPVDVAAAKAEKPALSLEKESSTTNTTEQVILSKIEESLKNAQKPVVIAGHEVISFGLEKTVTQFVSETKLPITTLNFGKSAVDESLPSFLGIYNGKLSEISLKNFVESADFILMLGVKLTDSSTGAFTHHLDENKMISLNIDEGIIFNKVVEDFDFRAVVSSLSELKGIEYEGQYIDKQYEEFIPSSAPLSQDRLWQAVESLTQSNETIVAEQGTSFFGASTIFLKSNSRFIGQPLWGSIGYTFPAALGSQIADKESRHLLFIGDGSLQLTVQELGLSIREKLNPICFIINNDGYTVEREIHGPTQSYNDIPMWNYSKLPETFGATEDRVVSKIVRTENEFVSVMKEAQADVNRMYWIELVLEKEDAPKLLKKMGKLFAEQNK
# modifications: His-tag when purified
# What was measured:
# [1] = tested on: 5-hydroxy-L-norvaline; experiment: Bioconversion (feeding) assay, step A4; format: cell-based; set-up: key: +: measureable activity detected in the assay; −: no measurable activity detected in the assay; conditions: BDO biosynthetic pathway step A4
# Protocol: (§1) Bioconversion assays. The activity of a candidate enzyme towards a given substrate can also be evaluated in vivo using a simple feeding assay. A strain expressing the candidate enzyme is grown in the presence of the substrate for which activity is desired. Samples of the culture are removed periodically and the cells are removed via centrifugation. The culture supernatant is then analyzed (e.g., by LC-MS) to determine how much of the substrate has been removed and how much of a given product is present.
# (§2) The aldehyde dehydrogenase linked reaction was used for step A5.
# [2] = tested on: 5-hydroxy-L-norvaline; experiment: In vitro substrate conversion assay, step A4; format: biochemical; set-up: key: +: measureable activity detected in the assay; −: no measurable activity detected in the assay; conditions: BDO biosynthetic pathway step A4
# Protocol: (§3) In Vitro Substrate Conversion. Most of the enzyme assays described above are based on recording changes in absorbance at a given wavelength. In addition to such spectrophotometric readouts, these assays can also be analyzed by more direct methods using an endpoint assay where the reaction is terminated after a given period of time and the mixture is analyzed via HPLC or LC-MS methods.
# as §2
# [3] = tested on: 5-hydroxy-L-norvaline; experiment: Enzyme assay, aminotransferase (step A4), cell lysates; format: biochemical; set-up: key: +: measureable activity detected in the assay; −: no measurable activity detected in the assay; conditions: BDO biosynthetic pathway step A4
# Protocol: (§4) Enzyme expression and crude lysate preparation. The enzymatic activity of each candidate enzyme is evaluated, first in E. coli and subsequently in C. glutamicum. It will be apparent to one of skill in the art that the expression and lysate preparations may need to be modified depending on the host cell and recombinant gene of interest.
# (§5) E. coli: E. coli strains transformed with expression clones, for example, pUC18 or MB4124 based clones having a medium strong constitutive promoter regulating the recombinant gene of interest, are grown aerobically in LB medium (Difco) containing the appropriate antibiotic(s). At an OD600 of 0.5, IPTG is added to a final concentration of 0.25 mM. The cultures are grown to a final OD600 of 1.5 at which time the cells are collected and harvested by centrifugation. Cell pellets are resuspended in BugBuster (Novagen) reagent containing benzonase and lysozyme. Alternatively, E. coli strains transformed with expression clones, are grown overnight aerobically at 37° C. in BHI containing the appropriate antibiotic(s). 300 μL of fresh overnight culture is used to inoculate 2.7 mL BHI containing 0.25 mM IPTG and the appropriate antibiotic. The cultures are grown aerobically for 4-5 hours at 37° C. at which time the cells are collected and harvested by centrifugation. Cell pellets are frozen at −80° C. for at least 15 minutes, then thawed and resuspended in BugBuster (Novagen) reagent. Lysis and lysate collection are performed according to the manufacturer's instructions and, for example, may involve use of a sonicator and/or French press. Cleared lysates are stored on ice until enzyme assays are performed.
# C. glutamicum: C. glutamicum strains transformed with MB4124 expression clones containing the recombinant gene of interest are grown aerobically in BHI broth supplemented with the proper antibiotic(s). At an OD600 of 0.5, IPTG is added to a final concentration of 0.25 mM. The cultures are grown to a final OD600 of 1.5 at which time the cells are collected and harvested by centrifugation. The pellet is washed once in one volume of water and resuspended in lysis buffer (1.0 ml 1.0 M HEPES buffer, pH 7.5, 0.5 ml 1M KOH, 10 μl 0.5M EDTA, protease inhibitor cocktail, water to 5 ml; the final pH will vary depending on the individual enzyme being tested) and one volume of 0.1 mm acid washed glass beads. The mixture is repeatedly alternately vortexed and held on ice for 15 seconds, eight times. After centrifugation for 5 min at 4,000 rpm, the supernatant lysate is removed and respun for 20 min at 10,000 rpm. Alternatively, C. glutamicum strains transformed with MB4124 expression clones containing the recombinant gene of interest are grown aerobically overnight in BHI broth supplemented with the proper antibiotic(s). Five mL of fresh overnight culture is used to inoculate 200 mL BHI containing 0.25 mM IPTG and the appropriate antibiotic. The cultures are grown aerobically at 30° C. for 5-7 hours at which time the cells are collected and harvested by centrifugation at 4° C. The pellet is resuspended in 15 mL ice cold 39 mM KH2PO4, 61 mM K2HPO4, 0.5 M KCl and lysed using a BioSpec BeadBeater and following the manufacturer's instructions. […]
# (§6) Protein Assays. Protein concentrations in lysates are determined according to the methods of Bradford et al. (Anal. Biochem. 72:248-254 [1976]) or by the method of Smith et al. (Anal. Biochem. 150(1):76-85 [1985]) and lysates are assayed according to the methods below. […]
# [4] = tested on: 4-hydroxybutanal; experiment: Bioconversion (feeding) assay, step A6; format: cell-based; set-up: key: +: measureable activity detected in the assay; −: no measurable activity detected in the assay; conditions: BDO biosynthetic pathway step A6
# Protocol: as §1, §2
# [5] = tested on: 4-hydroxybutanal; experiment: In vitro substrate conversion assay, step A6; format: biochemical; set-up: key: +: measureable activity detected in the assay; −: no measurable activity detected in the assay; conditions: BDO biosynthetic pathway step A6
# Protocol: as §3, §2
# [6] = tested on: 4-hydroxybutanal; experiment: Enzyme assay, oxidoreductase (step A6), cell lysates; format: biochemical; set-up: key: +: measureable activity detected in the assay; −: no measurable activity detected in the assay; conditions: BDO biosynthetic pathway step A6
# Protocol: as §4
# as §5, with “performed. […]” for “performed.”
# as §6
# [7] = tested on: 5-hydroxy-2-oxopentanoate; experiment: Enzyme assay, decarboxylase (step A5), aldehyde dehydrogenase linked reaction; format: biochemical; set-up: key: +: measureable activity detected in the assay; −: no measurable activity detected in the assay; conditions: BDO biosynthetic pathway step A5
# Summary of the method: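 Crude lysates of E. coli or C. glutamicum expressing the candidate decarboxylase (0.25 mM IPTG induction) were assayed against vector-only control lysates, using natural substrate and pathway metabolite. Decarboxylation was coupled to aldehyde dehydrogenase converting the aldehyde product to acid with NAD+ reduction, followed as absorbance increase at 340 nm.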
# [8] = tested on: 3-methyl-2-oxopentanoate (3-MOP); experiment: Kinetics of purified His-tagged KdcAL1 on 3-MOP (aldehyde dehydrogenase linked reaction); format: biochemical; conditions: substrate 3-MOP; purified His-tagged enzyme
# Protocol: (§7) Aldehyde Dehydrogenase linked reaction: In another example of a coupled assay, the decarboxylation of a substrate is linked to the activity of an aldehyde dehydrogenase (Sigma catalog number A6338) reaction that converts the aldehyde product to a carboxylic acid with the concomitant reduction of NAD+. The overall activity of the coupled reactions is assessed spectrophotometrically by measuring the increase in absorbance at 340 nm which corresponds to the NAD+ reduction. One enzyme unit is defined as the amount of enzyme that catalyzes the decarboxylation of 1 μmol of substrate per minute.
# (§8) Standard molecular biology techniques were used to create an E. coli expression construct encoding KdcAL1 having three histidine (His) residues attached to its C-terminus. This His-tagged enzyme was over-expressed in E. coli, purified and assayed to assess its activity towards a natural substrate, 3-methyl-2-oxopentanoate (3-MOP) and its BDO pathway substrate, 5-hydroxy-2-oxopentanoate (5-HOP). The purified enzyme was assayed as described in example 3 above (step A5, Aldehyde dehydrogenase linked reaction). […] This Vmax is about 10 times lower than the rate of 3-MOP activity.
# [9] = tested on: 5-hydroxy-2-oxopentanoate (5-HOP); experiment: Kinetics of purified His-tagged KdcAL1 on 5-HOP (aldehyde dehydrogenase linked reaction); format: biochemical
# Protocol: as §7, §8
# [10] = tested on: 5-hydroxy-2-oxopentanoate; experiment: Bioconversion (feeding) assay, step A5; format: cell-based; set-up: key: +: measureable activity detected in the assay; −: no measurable activity detected in the assay; conditions: BDO biosynthetic pathway step A5
# Protocol: as §1, §2
# [11] = tested on: 5-hydroxy-2-oxopentanoate; experiment: In vitro substrate conversion assay, step A5; format: biochemical; set-up: key: +: measureable activity detected in the assay; −: no measurable activity detected in the assay; conditions: BDO biosynthetic pathway step A5
# Protocol: as §3, §2
molecule,measurement,setting,value
B1,Bioconversion Assay,[1],+
same,In Vitro Substrate Conversion Assay,[2],+
same,Enzyme Assay,[3],+
B2,Bioconversion Assay,[4],+
same,In Vitro Substrate Conversion Assay,[5],+
same,Enzyme Assay,[6],+
B3,Enzyme Assay,[7],+
same,Km,[8],1.3 mM
same,Vmax for 5-HOP lower than the rate of 3-MOP activity,[9]; 5-HOP versus 3-MOP,about 10 times
same,Km,"[9]; substrate 5-HOP, purified His-tagged enzyme",49 mM
same,Vmax,"[9]; substrate 5-HOP, purified His-tagged enzyme, FIG. 24",approximately 0.15 U/mg
same,Bioconversion Assay,[10],+
same,In Vitro Substrate Conversion Assay,[11],+
